According to patent US8088387B2, “Method of targeting specific cell populations using cell-binding agent maytansinoid conjugates linked via a non-cleavable linker, said conjugates, and methods of making said conjugates” (Immunogen Inc., priority 2003, dated 2012):

Experiments:
A375 cells = assay: continuous exposure clonogenic assay, antigen-negative cells; type: cell-based, human
Source text: (§1) Cell-binding agent maytansinoid conjugates of the invention can be evaluated for their ability to suppress proliferation of various cell lines in vitro. For example, cell lines such as the human colon carcinoma line COLO205, the human melanoma cell line A375, the human myeloid leukemia cell line HL60, the human breast carcinoma line SKBR3, or the human epidermoid carcinoma cell line KB can be used for the assessment of cytotoxicity of these conjugates. Cells to be evaluated can be exposed to the compounds for 24 hours and the surviving fractions of cells measured in direct assays by known methods. (See, e.g. Goldmacher et al., 135 J. Immunol. 3648-3651 (1985), and Goldmacher et al., 102 J. Cell Biol. 1312-1319 (1986).) IC50 values can then be calculated from the results of the assays.
(§2) The in vitro cytotoxicity and specificity of the huC242-SMCC-DM1 conjugate were evaluated using a continuous exposure clonogenic assay.

COLO 205 cells = assay: indirect FACS binding assay on COLO 205 cells; parameters: species or system human; details: 5×10^3 cells per well, three hour primary incubation on ice
Experimental: The inventors carried out binding and cytotoxicity studies on the huC242-non-S-containing non-cleavable linker-DM1 conjugate. First, the binding affinities of huC242 antibody, huC242-SMNP-DM3, and huC242-non-S-containing non-cleavable linker-DM1 to COLO 205 cells were compared. 5×10^3 cells per well were used, with a three hour primary incubation on ice. The huC242-non-S-containing non-cleavable linker-DM1 conjugate had about a two-fold higher apparent dissociation constant than free antibody (see FIG. 23).

COLO205 cells = assay: cell cycle arrest by flow cytometry; type: cell-based, human; details: 30 hours post-treatment
Experimental: Maytansinoid conjugates are thought to impart their cell destroying activity through the inhibition of microtubule polymerization. This inhibition of microtubule polymerization leads to an arrest of the cell cycle principally at G2/M. The antigen-dependent arrest of cells at G2/M by antibody-maytansinoid conjugates can be monitored by flow cytometry analysis (FIG. 13). Treatment of COLO205 cells with huC242-SPP-DM1 or huC242-SMCC-DM1 conjugate results in a complete G2/M arrest by 6-10 hours. […] The difference in the durability of the activity of these two conjugates is also reflected in percentage of dead cells at the 30 hour time point, as judged by a dye exclusion assay using trypan blue.

[1] = system: COLO 205 colon tumor xenografts; assay: COLO 205 colon tumor xenografts in SCID mice; type: in vivo
Experimental: (§3) Antibody conjugates with DM1 using the SMCC linker show anti-tumor efficacy against human tumor xenografts in mice (FIGS. 10A-C). […] In this experiment, one group of five animals bearing established subcutaneous tumors was treated with huC242-SMCC-DM1 at a dose of 150 μg/kg of conjugated DM1. Tumor sizes were measured periodically and graphed vs. time after tumor inoculation. […] In this experiment, three groups of five animals each bearing established subcutaneous SNU tumors were treated with huC242-SMCC-DM1 at doses of 15 μg/kg, 30 μg/kg, and 60 μg/kg of conjugated DM1, respectively. Tumor sizes were measured periodically and graphed vs. time after tumor inoculation.

SKBR3 cells = assay: continuous exposure clonogenic assay, antigen-positive cells; type: cell-based, human
Source text: as §1, §2

Namalwa cells = assay: cell destroying activity, antigen-negative cells (bystander study); type: cell-based
Source text: (§4) An additional aspect of conjugates prepared with non-cleavable linkers compared to conjugates that have cleavable disulfide linkers is the absence of activity toward antigen-negative cells when in close proximity to antigen-positive cells, termed here the bystander effect. That is, the conjugates prepared with non-cleavable linkers have minimal bystander activity. […] This minimal bystander activity of the non-cleavable conjugate, as measured in this in vitro assay, may contribute to the increased tolerability of conjugate with non-cleavable linkers observed in acute toxicity studies.

[2] = acute toxicity test, single intravenous dose; type: in vivo, female CD-1 mice; details: single intravenous dose
Experimental: Maytansinoid conjugates prepared with non-cleavable linkers such as SMCC show an unexpected increased tolerability in mice compared with conjugates prepared with cleavable disulfide linkers. An acute toxicity test with a single intravenous dose was carried out in female CD-1 mice. A comparison of the tolerability of a huC242-SMCC-DM1 conjugate (non-cleavable) with huC242 conjugates prepared with linkers containing cleavable disulfide bonds was conducted by monitoring the death of mice (FIGS. 12A and B) and signs of toxicity (FIGS. 12C and D) over a series of four escalating doses of each conjugate. The maximum tolerated dose (MTD) for the SMCC-DM1 conjugate was greater than the highest dose tested (150 mg/kg) while the MTD for the disulfide-linked conjugate SPP-DM1 was in the range of 45-90 mg/kg.

[3] = Pharmacokinetic Studies of huC242-SPP-DM1 and huC242-SCC-DM1 conjugates inCD-1 Mice Plasma clearance curves and Pharmacokinetic parameters
Source text: Table printed on a drawing sheet, FIG. 11
Title: Pharmacokinetic Studies of huC242-SPP-DM1 and huC242-SCC-DM1 conjugates inCD-1 Mice Plasma clearance curves and Pharmacokinetic parameters
First reader's note: Rows without -DM1 (huC242-SMCC, huC242-SPP) appear to be the antibody component of the same conjugates, as in the plot legend; study in CD-1 mice.

[4] = plasma clearance of conjugates; type: in vivo
Source text: This is in sharp contrast to plasma clearance of conjugates prepared with relatively labile disulfide bonds such as huC242-SPP-DM1. […] The non-cleavable SMCC linkage is therefore much more resistant to maytansinoid-linker cleavage activities present in vivo than the SPP-DM1 conjugate. […] This increased exposure could have substantial impact on drug efficacy in some cases.

[5] = in vitro clonogenic / indirect cytotoxicity assays, cell line not given; type: cell-based; details: clonogenic (FIG. 6A-C) and indirect cytotoxicity assays (FIG. 7)
Source text: as §1

COLO 205 cell line = assay: cell destroying activity, antigen-positive cells (bystander study); type: cell-based, human; details: COLO 205 cultured separately
Source text: as §4

[6] = system: SNU16 human gastric tumor xenografts; assay: SNU16 human gastric tumor xenografts in SCID mice; type: in vivo
Experimental: as §3

[7] = 150 μg/kg of conjugated DM1, of five animals

B1: huC242-SMCC-DM1: huC242 antibody linked to maytansinoid DM1 via the non-cleavable linker SMCC (conjugate, chains of the INN, looked up)
VH: QVQLVQSGAEVKKPGETVKISCKASDYTFTYYGMNWVKQAPGQGLKWMGWIDTTTGEPTYAQKFQGRIAFSLETSASTAYLQIKSLKSEDTATYFCARRGPYNWYFDVWGQGTTVTVSS
VL: DIVMTQSPLSVPVTPGEPVSISCRSSKSLLHSNGNTYLYWFLQRPGQSPQLLIYRMSNLVSGVPDRFSGSGSGTAFTLRISRVEAEDVGVYYCLQHLEYPFTFGPGTKLELK
modifications: DM1 via SMCC linker
Question: With B1 as the molecule, how does the “fold less sensitive than SKBR3 cells” value (A375 cells; antigen negative A375 vs antigen positive SKBR3) read?
Answer: The value was “about 800 fold”.

Question: And the IC50 (A375 cells; antigen-negative A375 cells, continuous exposure clonogenic assay)?
Answer: Its IC50 is greater than 3 nM.

Question: What about the Kd (COLO 205 cells) of the same molecule?
Answer: The Kd was 0.552 nM.

Question: What about the “durability of cell cycle arrest” value (COLO205 cells) of the same molecule?
Answer: Its value is “do not escape from the cell cycle block”.

Question: What about the tumor response ([1]; 150 μg/kg of conjugated DM1, five animals, established subcutaneous tumors) of the same molecule?
Answer: Its tumor response is “All five treated animals had a complete remission”.

Question: And the “animals that relapsed after complete remission” value [1, 7]?
Answer: The value was “three”.

Question: What about the “animals tumor-free until termination of the experiment” value [1, 7] of the same molecule?
Answer: Its value is “two”.

Question: What about the “effect on mouse body weight” value ([1]; at conjugate doses with anti-tumor activity) of the same molecule?
Answer: The value was “no effect on mouse body weight”.

Question: And the “time some mice remained free of detectable tumors post-treatment” value ([1]; sentence citing FIG. 10B, text prints COLO 205)?
Answer: Its value is “over 2 months”.

Question: What about the “tumor response (sentence citing FIG. 10B)” value ([1]; text prints COLO 205 colon carcinoma xenografts) of the same molecule?
Answer: Its value is “complete regression of tumors”.

Question: What about the IC50 (SKBR3 cells) of the same molecule?
Answer: Its IC50 is 0.0035 nM.

Question: What about the cell destroying activity (Namalwa cells; Namalwa cultured separately) of the same molecule?
Answer: The cell destroying activity was “no activity”.

Question: And the “bystander cell destroying activity toward Namalwa cells” value (Namalwa cells; co-cultures of COLO 205 and Namalwa cells)?
Answer: Its value is “No cell destroying activity”.

Question: What about the “survival / lethal toxicity” value ([2]; at 150 mg/kg) of the same molecule?
Answer: Its value is “all mice in the SMCC-DM1 treated group survived”.

Question: And the “maximum tolerated dose (MTD)” value ([2]; female CD-1 mice)?
Answer: Its value is greater than 150 mg/kg.

Question: What about the “AUC |” value [3] of the same molecule?
Answer: The value was 40374.2 µg·h/mL.

Question: And the “CL |” value [3]?
Answer: The value was 7.2 mL/day/kg.

Question: And the “Vss |” value [3]?
Answer: The value was 0.1125 L/kg.

Question: What about the “t1/2 | hour” value [3] of the same molecule?
Answer: Its value is 13.26 days.

Question: What about the “increase in overall maytansinoid exposure (AUC) compared to SPP-DM1 conjugates” value ([4]; area under the curve) of the same molecule?
Answer: The value was roughly 5 fold.

Question: What about the half-life for clearance ([4]; plasma, conjugate, FIG. 11) of the same molecule?
Answer: The half-life for clearance was “approximately 320 hours”.

Question: What about the “potency compared to conjugates prepared with disulfide-containing linkers” value [5] of the same molecule?
Answer: Its value is “equal or greater potency”.

Question: What about the cell destroying activity (COLO 205 cell line) of the same molecule?
Answer: Its cell destroying activity is “potent cell destroying activity”.

Question: And the antitumor effect ([6]; 15, 30 and 60 μg/kg of conjugated DM1, established subcutaneous SNU tumors)?
Answer: Its antitumor effect is “dose-dependent antitumor effect”.

Question: What about the “effect on mouse body weight” value ([6]; at active conjugate concentration) of the same molecule?
Answer: The value was “no effect on mouse body weight”.
